Data: patent publication US20150140018A1 (MEDICAL AND BIOLOGICAL LABORATORIES, published 2015)

Molecular target: T1, CXADR protein on human prostate cancer cells (LNCaP-CR, DU-145) (human, UniProt P78310 20-365)
T1 construct: whole, on cells; Endogenous CXADR; also called coxsackievirus and adenovirus receptor; CAR
T1 sequence (looked up): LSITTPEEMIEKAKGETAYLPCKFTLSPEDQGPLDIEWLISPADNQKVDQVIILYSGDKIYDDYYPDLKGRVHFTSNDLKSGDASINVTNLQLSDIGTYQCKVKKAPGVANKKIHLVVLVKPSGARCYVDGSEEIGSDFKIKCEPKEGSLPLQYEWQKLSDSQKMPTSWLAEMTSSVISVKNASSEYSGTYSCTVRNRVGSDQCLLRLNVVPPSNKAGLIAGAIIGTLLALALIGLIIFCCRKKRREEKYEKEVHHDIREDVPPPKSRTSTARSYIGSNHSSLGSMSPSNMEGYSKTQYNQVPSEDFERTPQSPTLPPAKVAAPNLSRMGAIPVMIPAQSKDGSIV
Experiment: flow cytometry, purified antibody at 5 ug/mL on LNCaP-CR and DU-145 cells that express CXADR

binding result: binds
B1: anti-CXADR antibody 7F8A (antibody, V domains shown)
VH: DVQLQESGPGLVKPSQTVSLTCTVTGYSITNGNHWWNWIRQVSGSKLEWIGYINSSGSTDSNPSLKSRISITRDTSKNQLFLQLNSVTIEDIATYYCARDDYYFDYWGQGTTLTVSS
VL: DIQMTQSPASLSASVGETVTITCRASENIDSYLAWYQQKQGKSPQLLVYAATLLADGVPSRFSGSGSGTQYSLKINSLQSEDVARYYCQHYYSTPLTFGAGTKLELKR
notes: also called 7F8A clone
